Assay results: patent US20240279345A1, “ALPHA 5 BETA 1 INTEGRIN BINDING AGENTS AND USES THEREOF” (PASITHEA THERAPEUTICS CORP., priority 2021, published 2024)

What was measured:
rh-α5β1 = rh-α5β1 (Homo sapiens, UniProt P05556+P08648); assay: Competition binding studies by Biolayer Interferometry (epitope groups); details: for binding of rh-α5β1 complexed with antibody to C-14D12 on the sensor: C-14D12 immobilized on sensor; for Response (nm) / % Response: secondary mAb pre-mixed with 20 nM rh-α5β1; for % Response: relative to antigen alone; for epitope group: two epitope groups among 6 antibodies
Method in brief: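 Pre-mixed competition BLI: FN-blocking lead antibodies A2-7A05, C-14D12 or A-15B08 loaded on sensors (700 s), quenched, baselined, then exposed 600 s to partner antibody preincubated 1 hr with rh-α5β1. Response relative to antigen alone: >120% = antibodies pair, <80% = antibodies block.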

[1] = molecular target: rh-α5β1 protein bound to human FN protein (Homo sapiens, UniProt P05556+P08648); assay: SPR dissociation of rh-α5β1 bound to FN; assay type: biochemical; details: 1 μM antibody injected for 250s after 400 nM rh-α5β1; 25° C.
Procedure: Surface Plasmon Resonance (SPR) and a cell-based assay were used to test the effect of the antibodies on the dissociation of rh-α5β1 protein bound to human FN protein. The antibodies tested are representatives of the two groups of antibodies identified in Example 6 that define two different epitope binding groups and have distinct ligand blocking properties. […] In addition, the small molecule antagonist cyclic RGD (cRGD; Creative-Peptides, Shirley, New York, 11967, cat. no. CP22175) was tested as a comparator that inhibits α5β1 integrin binding to FN by competing at the ligand binding pocket.
Description of the SPR method used: FN protein dissolved in water was manually printed onto the bare gold-coated (thickness 47 nm) PlexArray Nanocapture Sensor Chip (Plexera Bioscience, Seattle, WA) at 40% humidity. The chip was incubated in 80% humidity at 4° C. for overnight and rinsed with 10×PBST (0.1M phosphate buffer, 1.54M NaCl, pH7.4, 0.5% Tween20) for 10 minutes (min), 1×PBST (0.01M phosphate buffer pH7.4, 0.154M NaCl, 0.05% Tween20) for 10 min, and deionized water twice for 10 min. The chip was then blocked with 5% (w/v) non-fat milk in water overnight, and washed with 10×PBST for 10 min, 1×PBST for 10 min, and deionized water twice for 10 min before being dried under a stream of nitrogen prior to use. SPR measurements were performed using PlexArray HT (Plexera Bioscience, Seattle, WA), a high-throughput surface plasmon resonance imaging (SPRi) platform. Collimated light (660 nm) passes through the coupling prism, reflects off the SPR-active gold surface, and is received by the CCD camera. Buffers and samples were injected by a non-pulsatile piston pump into the 30 μL flow cell that was mounted on the coupling prim. […] SPR binding responses (a.u.) were recorded and plotted over time.

[2] = molecular target: T1, rh-α5β1 in active conformation (binding to 12G10) (Homo sapiens, UniProt P05556+P08648); assay: 12G10 conformation assay (α5β1 integrin binding to 12G10); details: 0.5 mM MnCl2
T1 construct: purchased Acro Biosystems IT1-H52W5
Procedure: A Nunc MaxiSorp Flat-Bottom 96-well plate (Invitrogen, Waltham, MA, cat. no. 44-2404-21) was coated with 12G10 antibody at 2 μg/mL in 0.2M carbonate-bicarbonate buffer, pH9.4 (Thermo Scientific, Rockford, IL, cat. No. 28382) by incubation overnight at 4° C. Plates were then washed 3 times with Wash Buffer (1× Tris Buffered Saline containing 0.05% Tween20), then blocked with 2% BSA in 1×TBS for 2 hours at room temperature (RT). The human IgG4 chimeric versions of the antibodies were diluted in Standard Diluent (2% BSA, 1×TBS, 0.05% Tween20) containing 0.05 μg/mL rh-α5β1-6×His tagged protein (Acro Biosystems, Newark, DE, cat. no. IT1-H52W5) and 0.5 mM MnCl2 (TEKnova, Hollister, CA, cat. no. M0350) to generate a 7 point 1:5 antibody dilution series ranging from 10,000 ng/mL to 0.64 ng/mL. In addition to human IgG4 chimeric antibodies A-15B08, C-14D12 and A2-7A05, three other antibodies tested included IgG4 isotype control (human IgG4, Kappa, anti-fluorescein Ab00102-13.0, Absolute Antibody, Wilton, UK), anti-integrin alpha-5 clone SNAKA51 (MilliporeSigma, St. Louis, MO, cat. no. MABT201) known to induce integrin alpha-5 into an active conformation, and finally the 12G10 antibody itself which can directly compete with the 12G10 bound to the MaxiSorp plate. For the assays, 100 μL of the antibody dilution series, His-tagged-α5β1 mixture was added to the wells after the blocking solution was removed and wells were washed 3 times. […] Absorbance 450 nm was measured. Data points were normalized to the absorbance of the well containing no antibody for each dilution series and reported as Percent Binding. […]

[3] = antibody preincubated with rh-α5β1

Chain of rh-α5β1 (P08648 42-894 limits assumed): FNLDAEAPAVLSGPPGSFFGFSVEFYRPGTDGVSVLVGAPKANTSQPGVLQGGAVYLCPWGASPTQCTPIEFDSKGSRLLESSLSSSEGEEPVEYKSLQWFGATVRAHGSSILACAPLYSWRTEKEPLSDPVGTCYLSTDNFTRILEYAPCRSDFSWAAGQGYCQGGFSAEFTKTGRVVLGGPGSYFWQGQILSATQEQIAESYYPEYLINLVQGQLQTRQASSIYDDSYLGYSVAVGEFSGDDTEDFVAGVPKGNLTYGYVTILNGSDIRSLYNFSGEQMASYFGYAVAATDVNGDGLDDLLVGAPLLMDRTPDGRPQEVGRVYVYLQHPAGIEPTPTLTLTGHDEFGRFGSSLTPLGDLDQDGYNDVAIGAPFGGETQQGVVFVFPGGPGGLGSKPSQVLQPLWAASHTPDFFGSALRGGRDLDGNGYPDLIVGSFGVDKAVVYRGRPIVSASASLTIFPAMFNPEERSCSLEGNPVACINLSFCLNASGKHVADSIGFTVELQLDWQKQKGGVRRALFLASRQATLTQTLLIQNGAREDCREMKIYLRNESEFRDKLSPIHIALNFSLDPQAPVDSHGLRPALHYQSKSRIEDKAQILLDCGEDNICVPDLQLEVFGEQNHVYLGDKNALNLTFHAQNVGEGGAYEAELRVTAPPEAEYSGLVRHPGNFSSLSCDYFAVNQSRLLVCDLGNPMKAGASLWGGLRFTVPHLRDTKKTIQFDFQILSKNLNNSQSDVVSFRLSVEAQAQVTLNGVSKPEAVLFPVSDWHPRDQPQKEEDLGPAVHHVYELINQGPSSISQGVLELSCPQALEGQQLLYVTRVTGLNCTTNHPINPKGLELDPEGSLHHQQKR
Chain of rh-α5β1 (P08648 895-995 limits assumed): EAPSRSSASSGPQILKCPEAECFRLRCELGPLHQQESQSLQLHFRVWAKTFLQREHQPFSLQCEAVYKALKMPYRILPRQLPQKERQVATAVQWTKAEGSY
Chain of rh-α5β1 (P05556 21-728 limits assumed): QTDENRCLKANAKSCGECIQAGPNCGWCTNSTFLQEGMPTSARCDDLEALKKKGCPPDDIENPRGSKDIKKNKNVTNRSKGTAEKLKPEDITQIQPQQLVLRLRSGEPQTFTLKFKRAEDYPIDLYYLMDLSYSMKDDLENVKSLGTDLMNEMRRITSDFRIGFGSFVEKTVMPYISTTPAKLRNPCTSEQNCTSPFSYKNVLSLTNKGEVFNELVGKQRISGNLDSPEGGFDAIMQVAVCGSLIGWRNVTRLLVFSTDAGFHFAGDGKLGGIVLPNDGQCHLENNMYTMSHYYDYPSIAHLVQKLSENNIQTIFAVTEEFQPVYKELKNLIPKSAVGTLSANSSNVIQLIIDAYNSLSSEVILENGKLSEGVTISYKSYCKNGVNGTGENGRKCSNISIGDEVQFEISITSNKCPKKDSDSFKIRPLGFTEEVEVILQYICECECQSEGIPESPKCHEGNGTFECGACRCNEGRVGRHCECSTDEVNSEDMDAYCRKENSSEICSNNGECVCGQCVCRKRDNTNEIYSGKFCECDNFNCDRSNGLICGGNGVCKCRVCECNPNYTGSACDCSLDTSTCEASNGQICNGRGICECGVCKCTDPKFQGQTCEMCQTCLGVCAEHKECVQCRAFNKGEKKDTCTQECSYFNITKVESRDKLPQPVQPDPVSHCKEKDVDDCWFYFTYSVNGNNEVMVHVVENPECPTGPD
Chain of rh-α5β1 protein bound to human FN protein (P08648 42-894 limits assumed): as the sequence (P08648 42-894 limits assumed) above
Chain of rh-α5β1 protein bound to human FN protein (P08648 895-995 limits assumed): as the sequence (P08648 895-995 limits assumed) above
Chain of rh-α5β1 protein bound to human FN protein (P05556 21-728 limits assumed): as the sequence (P05556 21-728 limits assumed) above
T1 sequence (P08648 42-894 limits assumed): as the sequence (P08648 42-894 limits assumed) above
T1 sequence (P08648 895-995 limits assumed): as the sequence (P08648 895-995 limits assumed) above
T1 sequence (P05556 21-728 limits assumed): as the sequence (P05556 21-728 limits assumed) above

Molecule | binding of rh-α5β1 complexed with antibody to A-15B08 on the sensor (rh-α5β1; antibody preincubated with rh-α5β1, A-15B08 immobilized on sensor) | binding of rh-α5β1 complexed with antibody to C-14D12 on the sensor (rh-α5β1; [3]) | Response (nm) (rh-α5β1; immobilized mAb A2-7A05) | % Response (rh-α5β1; immobilized mAb A2-7A05) | Response (nm) (rh-α5β1; immobilized mAb A-15B08) | % Response (rh-α5β1; immobilized mAb A-15B08) | Response (nm) (rh-α5β1; immobilized mAb C-14D12) | % Response (rh-α5β1; immobilized mAb C-14D12) | epitope group (rh-α5β1) | effect on dissociation of rh-α5β1 protein bound to FN (SPR response) [1] | effect on α5β1 integrin binding to 12G10 ([2]; dilution series 10,000 to 0.64 ng/mL) | binding of rh-α5β1 complexed with antibody to A2-7A05 on the sensor (rh-α5β1; antibody preincubated with rh-α5β1, A2-7A05 immobilized on sensor) | reduction of α5β1 integrin binding to 12G10 ([2]; human IgG4 chimeric antibodies)
A2-7A05: anti-α5β1 antibody, VH SEQ ID NO:77, VL SEQ ID NO:78; tested as mouse hybridoma antibody and as human IgG4 chimera (antibody, V domains shown, A2-7A05 VH Sequence; A2-7A05 VL Sequence, tested as mouse hybridoma antibody and as human IgG4 chimera) VH: QVQLQQPGAELVKPGASVKLSCKASGYTFTIYWINWVKQRPGQGLEWIGKIYPGSISTDYNEKFKSKATLTVDTSSSTAYMQLSSLTSDDSAVYYCAITGTGGLAYWGQGTLVTVSA VL: ENVLTQSPAIMSASLGEKVTMTCRASSSVNYMYWYQQKSDASPKLWIYFTSSLAPGVPGRFSGSGSGNSYSLTISTMEGEDAATYYCQQFTTSPFTFGSGTKLEIK | able to bind | able to bind | −0.17 nm | −451.35% | 0.31 nm | 150.63% | 0.31 nm | 139.39% | one group | partial dissociation at a slower rate | did not reduce α5β1 integrin binding to 12G10 |  | 
A-15B08: anti-α5β1 antibody, VH SEQ ID NO:25, VL SEQ ID NO:26; tested as mouse hybridoma antibody and as human IgG4 chimera (antibody, V domains shown, A-15B08 VH Sequence; A-15B08 VL Sequence, tested as mouse hybridoma antibody and as human IgG4 chimera) VH: QVQLKESGPGLVAPSQSLSITCTISGFSLTSYGVHWVRQPPGKGLEWLVVIWSDGSTTYNSTLKSRLSISKDNSKSQVFFKMNSLQTDDTAMYYCARHYDYDGDWFAYWGQGTLVTVSA VL: QIVLTQSPAIMSASLGERVTMTCTASSRVSSNSLHWYQQKPGSSPKLWIYSTSNLASGVPARFSGSGSGTSYSLTISSMEAEDAATYYCHQYLRSPPTFGGGTKLEIK |  | not able to bind | 0.25 nm | 666.22% | −0.15 nm | −73.81% | −0.09 nm | −38.40% | second group | rapid dissociation of the FN-α5β1 complex |  | able to bind | approximately 50%
